Measurements reported in US6964763.

Target: Recombinant baculovirus-expressed HIV-1 gp120 derived from the LAV isolate (HIV-1 isolate LAV (LAI)), P03377
Assay: competition: 125I-CD4 on immobilized gp120, 10-fold molar excess of peptide; isolate (MN or LAI) not stated

Which % inhibition does the source give for CSVTCG (modifications not checked) [CSVTCG peptide derived from TSP1 properdin-like Type 1 repeat] here?
The % inhibition was 53%.
